Experimental data as given in US20190085083A1 (BRIGHAM AND WOMEN S HOSPITAL, published 2019).

Biological target: T1, hKLRG1 (human KLRG1), plate-coated, Example 21 (human, UniProt Q96E93 60-195, limits assumed)
T1 construct: also called plate-coated KLRG1
T1 sequence (looked up): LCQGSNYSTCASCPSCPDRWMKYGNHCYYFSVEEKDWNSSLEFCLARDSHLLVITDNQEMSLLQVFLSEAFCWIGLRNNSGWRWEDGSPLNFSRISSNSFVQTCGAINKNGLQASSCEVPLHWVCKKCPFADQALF
Test: ELISA, soluble hE-cadherin on plate-coated hKLRG1
Excerpt: An ELISA based KLRG1/E-cadherin competition assay was developed to measure KLRG1/E-cadherin binding as well as neutralization of KLRG1/E-cadherin binding.
FIG. 23 presents the results of soluble hE-cadherin binding to plate-coated hKLRG1.

B1: soluble recombinant human E-cadherin (ligand)
chain: DWVIPPISCPENEKGPFPKNLVQIKSNKDKEGKVFYSITGQGADTPPVGVFIIERETGWLKVTEPLDRERIATYTLFSHAVSSNGNAVEDPMEILITVTDQNDNKPEFTQEVFKGSVMEGALPGTSVMEVTATDADDDVNTYNAAIAYTILSQDPELPDKNMFTINRNTGVISVVTTGLDRESFPTYTLVVQAADLQGEGLSTTATAVITVTDTNDNPPIFNPTTYKGQVPENEANVVITTLKVTDADAPNTPAWEAVYTILNDDGGQFVVTTNPVNNDGILKTAKGLDFEAKQQYILHVAVTNVVPFEVSLTTSTATVTVDVLDVNEAPIFVPPEKRVEVSEDFGVGQEITSYTAQEPDTFMEQKITYRIWRDTANWLEINPDTGAISTRAELDREDFEHVKNSTYTALIIATDNGSPVATGTGTLLLILSDVNDNAPIPEPRTIFFCERNPKPQVINIIDADLPPNTSPFTAELTHGASANWTIQYNDPTQESIILKPKMALEVGDYKINLKLMDNQNKDQVTTLEVSVCDCEGAAGVCRKAQPVEAGLQIPA
notes: also called hE-cadherin; soluble E-cadherin
- EC50: 25 nM
